The record followed here is publication PMC10336103, “ResR/McdR-regulated protein translation machinery contributes to drug resilience in Mycobacterium tuberculosis” (Communications Biology, 2023).

This data set concerns the molecule itself. As to the kind of experiment: SEC; […], pH 8.0, 150 mM NaCl; flow rate 0.4 ml/min; […]. On the technique in general: In gel filtration, larger molecules generally elute earlier.

B1: ResR/McdR (ResR_(1-225)), 6x His-tagged (natural protein)
chain: MTQLVTRARSARGSTLGEQPRQDQLDFADHTGTAGDGNDGAAAASGPVQPGLFPDDSVPDELVGYRGPSACQIAGITYRQLDYWARTSLVVPSIRSAAGSGSQRLYSFKDILVLKIVKRLLDTGISLHNIRVAVDHLRQRGVQDLANITLFSDGTTVYECTSAEEVVDLLQGGQGVFGIAVSGAMRELTGVIADFHGERADGGESIAAPEDELASRRKHRDRKIG
notes: also called Rv1830; ERDMAN_2020; not shown: His6, N-terminal, kept
For the protein B1, the binding result is recorded as “binds”.
